# Measurements taken from the supplement of paper PMC12783771.
# ± gives the standard deviation of the averaged measurements.
# What was measured:
# [1] = sfGFP reporter fluorescence (15 h) (µM FITC); higher = higher leak; details: library round: Round 0; ligand: none
# Experimental: (§1)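 Cell-free (BL21 Star DE3 extract, PANOx-SP) biosensing: 1 µL Echo-assembled reactions with linear PbrR variant templates (5 nM) and pPbrR-sfGFP reporter, with 1 µM Pb (lead chloride), 30 µM Zn (zinc acetate) or no ligand; endpoint sfGFP fluorescence after 15 h at 30 °C, calibrated as µM FITC. Round 0 library (alanine scan, site saturation, combinatorial) of PbrR from Cupriavidus metallidurans; 2 biological replicates.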
# [2] = sfGFP reporter fluorescence (15 h) (µM FITC); higher = stronger transcriptional activation; details: library round: Round 0
# Experimental: as §1
sequence,measurement,setting,value
MNIQIGELAKRTACPVVTIRFYEQEGLLPPPGRSRGNFRLYGEEHVERLQFIRHCRSLDMPLSDVRTLLSYRKRPDQDCGEVNMLLDEHIRQVESRIGALLELKHHLVELREACSGARPAQSCGILQGLSDCVCDTRGTTAHPSDA [*146A],sfGFP reporter fluorescence,[1],0.06121 ± 0.00052
same,sfGFP reporter fluorescence,[2]; ligand: 1 µM Pb,0.0918 ± 0.006
same,sfGFP reporter fluorescence,[2]; ligand: 30 µM Zn,0.671 ± 0.0096
